The supplement of paper PMC10567573

B1: C10orf62 (parent)
chain: TSECPSDKDKSPESHKAKNESWIK

Variants of: B1
Assay: protein stability index of a GFP-peptide fusion (GPS, HEK-293T) (PSI 1-6); higher = more stable
Settings: c terminus: a fixed tail appended
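Further: lentivirally expressed fusions sorted by FACS into six bins by GFP to DsRed ratio, PSI derived from sequencing read proportions per bin multiplied by bin number.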

Protein stability index, by site and new letter:
S21: P 3.56; D 5.57; G 4.34; I 4.77; H 4.95; T 3.97; R 4.9; W 4.49; Q 4.62; A 4.61; Y 4.3; C 4.11; E 5.3
K8: F 3.68; W 2.99; E 4.41; S 3.84; M 3.52; R 3.95; P 3.38; C 3.52; H 3.15; Q 3.52; A 3.08; V 3.62; N 3.31; I 3.48; D 3.35
K24: M 2.76; G 3.77; Y 3.16; W 3.43; L 2.66; I 2.69; D 2.99; R 3.92; S 3.48; V 2.96; C 3.2; N 3.17; Q 2.27
S11: E 3.67; I 3.2; V 2.96; K 3.81; N 3.7; W 3.26; Q 1.92; A 3.41; L 3.04; P 3.52; F 2.98; M 3.26; C 3.31
K16: A 4.49; W 3.33; S 3.79; V 3.95; C 3.75; N 3.67; G 3.58; I 3.92; R 3.02; T 4.35; Q 3.29; L 3.37
C4: Y 3.15; R 3.15; F 3.33; A 3.53; P 3.39; S 2.46; M 3.79; H 3.34; Q 3.52; I 3.92; T 3.28; K 3.51; D 3.17; N 3.4; L 3.74; E 3.55; G 3.94
T1: A 2.87; E 3.09; D 3.6; N 3.38; I 3.04; V 2.3; Q 3.27; R 4.3; W 2.28; Y 3.14
E3: Q 2.94; R 3.21; G 3.73; C 3.01; N 3.36; M 2.88; A 2.94; Y 2.73; P 4.09
I23: V 1.74; Q 2.89; P 5.81; N 5.17; D 5.72; K 4.59; G 5.32; Y 5.21; W 5.11; M 4.7; S 3.79; E 3.96; H 5.18; R 5.25; L 4.46
D7: Q 3.2; C 3.2; W 2.58; N 3.11; Y 2.85; H 2.88; G 3.38; T 3.14; F 2.84; P 3.6; K 3.55
P5: R 3.45; T 2.9; Y 3.59; I 3.86; Q 3.32; G 3.41; S 3; E 3.84; N 3.94; C 2.8; L 3.33
W22: C 5.18; G 5.58; K 5.46; E 5.67; D 5.78; Q 5.8; M 5.6; S 5.82; P 5.54; F 5.62; N 5.73; I 5.72; R 5.84; H 5.83; Y 5.23
K10: W 2.28; D 4.02; T 3.04; Q 3.46; A 3.64; E 4; M 3.63; L 4.2; V 2.75; F 3.72; S 3.41; H 3.53; G 2.63
